Columns and labels:
Experiment in all cases: EMSA; 400 nM protein; 50 ng/ul Poly (competitor (so in the source)), 0.05% NP-40, 50 mM KCl, 5 mM MgCl2, 10 mM EDTA, 20 ul, 0.4 ng (16 fmol) probe; 30 min at room temperature (Methods) or 30 C; pH not stated; synapsis 2 h at 30 C
Conditions in all cases: protein: recombinant; tags: C-terminal His; chain copies: 2; label: biotin, double-strand end-labeled; blunt
[1] = molecular target: T1, phiC31 integrase V566A (Streptomyces phage phiC31, UniProt Q38194 1-613, V566A)
T1 sequence: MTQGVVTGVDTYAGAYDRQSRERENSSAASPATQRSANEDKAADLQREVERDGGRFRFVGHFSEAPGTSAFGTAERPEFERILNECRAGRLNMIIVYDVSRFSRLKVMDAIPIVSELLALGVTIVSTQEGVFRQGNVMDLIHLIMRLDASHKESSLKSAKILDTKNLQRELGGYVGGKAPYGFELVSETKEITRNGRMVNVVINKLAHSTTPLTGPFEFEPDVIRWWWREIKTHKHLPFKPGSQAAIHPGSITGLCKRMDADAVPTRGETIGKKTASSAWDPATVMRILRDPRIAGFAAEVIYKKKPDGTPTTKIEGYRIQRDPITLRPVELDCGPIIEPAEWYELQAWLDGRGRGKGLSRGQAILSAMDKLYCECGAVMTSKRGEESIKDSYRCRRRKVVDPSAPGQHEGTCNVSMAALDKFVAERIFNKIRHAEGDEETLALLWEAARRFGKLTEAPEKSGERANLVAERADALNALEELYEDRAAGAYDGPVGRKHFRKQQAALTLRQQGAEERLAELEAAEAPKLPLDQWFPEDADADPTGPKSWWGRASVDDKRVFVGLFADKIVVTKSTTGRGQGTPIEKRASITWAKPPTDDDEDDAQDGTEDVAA

[2] = molecular target: T2, phiC31 integrase C376A/G377A (Streptomyces phage phiC31, UniProt Q38194 1-613, C376A;G377A)
T2 sequence: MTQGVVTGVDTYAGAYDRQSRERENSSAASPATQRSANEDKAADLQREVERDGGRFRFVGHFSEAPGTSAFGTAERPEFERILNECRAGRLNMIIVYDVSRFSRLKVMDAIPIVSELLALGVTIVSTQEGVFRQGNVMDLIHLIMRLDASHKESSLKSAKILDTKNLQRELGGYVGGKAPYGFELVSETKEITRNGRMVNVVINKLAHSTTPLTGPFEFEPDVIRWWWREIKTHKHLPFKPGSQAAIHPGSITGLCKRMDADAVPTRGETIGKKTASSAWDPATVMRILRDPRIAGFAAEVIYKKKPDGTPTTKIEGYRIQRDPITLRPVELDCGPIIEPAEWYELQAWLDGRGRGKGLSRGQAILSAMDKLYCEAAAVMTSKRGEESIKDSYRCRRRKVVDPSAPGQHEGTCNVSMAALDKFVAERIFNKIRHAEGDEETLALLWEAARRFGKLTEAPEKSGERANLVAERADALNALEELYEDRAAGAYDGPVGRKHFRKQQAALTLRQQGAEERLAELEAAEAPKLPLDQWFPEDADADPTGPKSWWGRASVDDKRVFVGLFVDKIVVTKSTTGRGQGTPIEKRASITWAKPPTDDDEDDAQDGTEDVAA

[3] = molecular target: T3, phiC31 integrase G182A/F183A (Streptomyces phage phiC31, UniProt Q38194 1-613, G182A;F183A)
T3 sequence: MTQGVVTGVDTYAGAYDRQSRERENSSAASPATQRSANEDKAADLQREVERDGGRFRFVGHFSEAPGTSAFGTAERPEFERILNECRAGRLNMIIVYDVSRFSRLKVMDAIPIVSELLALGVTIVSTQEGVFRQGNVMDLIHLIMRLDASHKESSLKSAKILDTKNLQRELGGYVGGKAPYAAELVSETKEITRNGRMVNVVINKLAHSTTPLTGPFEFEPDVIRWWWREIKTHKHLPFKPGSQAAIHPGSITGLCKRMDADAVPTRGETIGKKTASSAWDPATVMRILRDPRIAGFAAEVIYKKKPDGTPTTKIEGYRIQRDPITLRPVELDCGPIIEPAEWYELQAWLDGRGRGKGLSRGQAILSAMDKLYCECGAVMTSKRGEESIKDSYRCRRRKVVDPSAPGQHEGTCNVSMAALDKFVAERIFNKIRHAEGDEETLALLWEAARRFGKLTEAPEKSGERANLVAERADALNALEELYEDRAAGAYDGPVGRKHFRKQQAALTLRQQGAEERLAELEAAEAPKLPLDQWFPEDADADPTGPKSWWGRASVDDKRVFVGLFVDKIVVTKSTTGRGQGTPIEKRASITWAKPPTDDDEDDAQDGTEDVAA

Measured: binding signal

B1: attB 41 bp (dsDNA)
DNA 1: CGGGTGCCAGGGCGTGCCCTTGGGCTCCCCGGGCGCGTACT
DNA 2: AGTACGCGCCCGGGGAGCCCAAGGGCACGCCCTGGCACCCG
0 % of WT: all assays above

From article PMC2810336, “Mutational Analysis of Highly Conserved Residues in the Phage PhiC31 Integrase Reveals Key Amino Acids Necessary for the DNA Recombination”
